Measured values taken from publication PMC12404759, “Efficacy and safety of a therapeutic humanized FSH-blocking antibody in obesity and Alzheimer’s disease models” (The Journal of Clinical Investigation, 2025).

Assays:
[1] = biological target: T1, follicle-stimulating hormone (FSH) (Homo sapiens (Human)., UniProt P01215;P01225); assay: protein thermal shift assay; antibody incubated with FSH; right-shift in melting temperature (Tm) of the ligand-binding Fab domain; details: both partners purified
T1 construct: FSH alpha subunit (FSHα, glycoprotein hormones alpha chain); FSH beta subunit (FSHβ); Heterodimeric hormone
T1 sequence (P01215 25-116, chain 1 of 2): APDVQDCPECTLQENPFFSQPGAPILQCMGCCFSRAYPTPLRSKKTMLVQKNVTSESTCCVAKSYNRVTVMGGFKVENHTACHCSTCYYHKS
T1 sequence (P01225 19-129, chain 2 of 2): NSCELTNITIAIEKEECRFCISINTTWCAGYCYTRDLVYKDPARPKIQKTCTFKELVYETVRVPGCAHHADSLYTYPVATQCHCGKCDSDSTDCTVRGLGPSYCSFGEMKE

[2] = biological target: T1, follicle-stimulating hormone (FSH); assay: cell-based or functional assay

EC50 based on UCP1 activation in dedifferentiated brown adipocytes (Thermo cells) [2]: 3.21 nM | IC50 for cAMP inhibition in SH-SY5Y human neuroblastoma cells [2]: 2.01 nM | IC50 of inhibition of cAMP elevation in response to FSH (5 μg/mL) in KGN human ovarian cancer cells [2]: 0.64 nM
B1: MS-Hu6 (antibody, V domains shown)
VH: QVQLQESGPGLVKPSQTLSLTCTVSGFSITSDYAWNWIRQPPGKGLEWIGSIFSSGSINYNPSLKSRVTISRDTSKNQFSLKLSSVTAADTAVYYCARGGTGTDYWGQGTLVTVSS
VL: DIQMTQSPSSLSASVGDRVTITCRASQDISNYLSWYQQKPGKAIKLLIYYTSRLHSGVPSRFSGSGSGTDYTLTISSLQPEDFATYFCQQGHTLPPTFGGGTKVEIK
notes: humanized VH and CH1; heavy chain of the Fab fragment (Hu6-Fab) deposited as PDB 8VZW; hinge and Fc of the full-length IgG; humanized VL and CL; light chain of the Fab fragment (Hu6-Fab) deposited as PDB 8VZW; the chimeric precursor used human IgK-CL; Full-length humanized IgG derived from the murine antibody Hf2 with the CDRs unaltered; The crystal was of the Fab fragment only
right-shift in Tm of the Fab domain [1]: ~1.8 °C
